Data taken from patent publication US20210070881A1 (DENALI THERAPEUTICS, published 2021).

B1: 2H8.03 (antibody, human IgG1, V domains shown)
VH: EVQLQQSGAELVRPGTSVKLSCKASGYTFTSYWIHWVKQRPGQGLEWIGMIDPSDSYTKYNQKFKDKATLTVDTSSSTTYMHLSSLTSEDSAVYYCARSGVAFPYWGQRTLVTVSA
VL: DIVMTQSQKFMSKSVGDTVSVTCKASQDVGRNVAWYQQKSGQSPKSLIYSASHRYSGVPDRFTGSGSGTDFTLTISNVQSEDLADYFCQQYNSYPYTFGGGTRLEIK
notes: human IgG1/kappa; also called 2H8_HCvar3 + 2H8_LC
B2: 2H8.07 (antibody, human IgG1, V domains shown)
VH: EVQLQQSGPELVKPGASVKLSCKASGYTFTNFWIHWLKQRPGQGLEWIGMIDPSDSYTKYNQKFKAKATLTVDTSSSTTYMHLSSLTSEDSAVYYCARSGVAFPYWGQRTLVTVSA
VL: DIVMTQSQKFMSTSVGDRVSVTCKASQNVGTNVAWYQQKPGQSPKALIYSASHRYSGVPDRFTGSGSGTDFTLTISNVQSEDLAEYFCQQYNSYMYTFGGGTKLEIK
notes: human IgG1/kappa; also called 2H8_HC + 2H8_LCvar2
B3: 2H8.13 (antibody, human IgG1, V domains shown)
VH: EVQLQQSGPELVKPGASVKLSCKASGYTFTNFWIHWLKQRPGQGLEWIGMIDPSDSYTKYNQKFKAKATLTVDTSSSTTYMHLSSLTSEDSAVYYCARSGVAFPYWGQRTLVTVSA
VL: DIQMTQSQKFMSTSIGDRVSVTCKASQNVGTNVAWYQQKPGQSPKSLIYSASHWYSGVPDRFTGSGSGTDFTLTISNVQSEDLAEYFCQQYNSYPYTFGGGTKLEIK
notes: human IgG1/kappa; also called 2H8_HC + 2H8_LCvar3
B4: 2H8.19 (antibody, human IgG1, V domains shown)
VH: EVQLQQSGPELVKPGASVKLSCKASGYTFTNFWIHWLKQRPGQGLEWIGMIDPSDSYTKYNQKFKAKATLTVDTSSSTTYMHLSSLTSEDSAVYYCARSGVAFPYWGQRTLVTVSA
VL: DIVMTQSQKFMSTSVGDRVSITCKASQNVGTNVAWYQQKPGQSPKALIYSASYRYSGVPDRFTGSGSGTDFTLTISNVQSEDLAEYFCQQYNSYPYTFGGGTKLEIK
notes: human IgG1/kappa; also called 2H8_HC + 2H8_LCvar4
B5: 2H8.25 (antibody, human IgG1, V domains shown)
VH: EVQLQQSGPELVKPGASVKLSCKASGYTFTNFWIHWLKQRPGQGLEWIGMIDPSDSYTKYNQKFKAKATLTVDTSSSTTYMHLSSLTSEDSAVYYCARSGVAFPYWGQRTLVTVSA
VL: DIVMTQSQKFMSTSVGDRVSVTCKASQNVGTNVAWYQQKSGQSPKALIYSASHRYSGVPDRFTGSGSGTDFTLTISNVQSEDLAEYFCQQYNSYPYTFGGGTKLEIK
notes: human IgG1/kappa; also called 2H8_HC + 2H8_LCvar5
B6: 2H8.33 (antibody, human IgG1, V domains shown)
VH: EVQLQQSGAELVRPGTSVKLSCKASGYTFTSYWIHWVKQRPGQGLEWIGMIDPSDSYTKYNQKFKDKATLTVDTSSSTTYMHLSSLTSEDSAVYYCARSGVAFPYWGQRTLVTVSA
VL: DIQMTQSQKFMSKSVGDRVSVTCKASQNVGSNVAWYQQKSGQSPKSLIYSASHRYSGVPDRFTGSGSGTDFTLTISNVQSEDLADYFCQQYNSYPYTFGGGTRLEIK
notes: human IgG1/kappa; also called 2H8_HCvar3 + 2H8_LCvar6
B7: 2H8.26 (antibody, human IgG1, V domains shown)
VH: EVQLQQPGTELVRPGTSVKLSCKASGYTFTNYWMHWIKQRPGQGLEWIGMIDPSDTYTKFNQNFKGKATLTVDTSSSTAYMQLNSLTSEDSAVYYCARSGVAFPYWGQGTTVTVSS
VL: DIVMTQSQKFMSTSVGDRVSVTCKASQNVGTNVAWYQQKSGQSPKALIYSASHRYSGVPDRFTGSGSGTDFTLTISNVQSEDLAEYFCQQYNSYPYTFGGGTKLEIK
notes: human IgG1/kappa; also called 2H8_HCvar2 + 2H8_LCvar5
B8: 2H8.08 (antibody, human IgG1, V domains shown)
VH: EVQLQQPGTELVRPGTSVKLSCKASGYTFTNYWMHWIKQRPGQGLEWIGMIDPSDTYTKFNQNFKGKATLTVDTSSSTAYMQLNSLTSEDSAVYYCARSGVAFPYWGQGTTVTVSS
VL: DIVMTQSQKFMSTSVGDRVSVTCKASQNVGTNVAWYQQKPGQSPKALIYSASHRYSGVPDRFTGSGSGTDFTLTISNVQSEDLAEYFCQQYNSYMYTFGGGTKLEIK
notes: human IgG1/kappa; also called 2H8_HCvar2 + 2H8_LCvar2
B9: 2H8.10 (antibody, human IgG1, V domains shown)
VH: EIQLQQSGTELVRPGTSVKLSCKASGYTFTNYWMHWVKQRPGQGLEWIGMIDPSAAYTNYNQNFKGKATLTVDTSSGTAYMQLSSLTSEDSAVYYCARSGVAFPYWGQGTTVTVSS
VL: DIVMTQSQKFMSTSVGDRVSVTCKASQNVGTNVAWYQQKPGQSPKALIYSASHRYSGVPDRFTGSGSGTDFTLTISNVQSEDLAEYFCQQYNSYMYTFGGGTKLEIK
notes: human IgG1/kappa; also called 2H8_HCvar4 + 2H8_LCvar2
B10: 2H8.14 (antibody, human IgG1, V domains shown)
VH: EVQLQQPGTELVRPGTSVKLSCKASGYTFTNYWMHWIKQRPGQGLEWIGMIDPSDTYTKFNQNFKGKATLTVDTSSSTAYMQLNSLTSEDSAVYYCARSGVAFPYWGQGTTVTVSS
VL: DIQMTQSQKFMSTSIGDRVSVTCKASQNVGTNVAWYQQKPGQSPKSLIYSASHWYSGVPDRFTGSGSGTDFTLTISNVQSEDLAEYFCQQYNSYPYTFGGGTKLEIK
notes: human IgG1/kappa; also called 2H8_HCvar2 + 2H8_LCvar3
B11: 2H8.20 (antibody, human IgG1, V domains shown)
VH: EVQLQQPGTELVRPGTSVKLSCKASGYTFTNYWMHWIKQRPGQGLEWIGMIDPSDTYTKFNQNFKGKATLTVDTSSSTAYMQLNSLTSEDSAVYYCARSGVAFPYWGQGTTVTVSS
VL: DIVMTQSQKFMSTSVGDRVSITCKASQNVGTNVAWYQQKPGQSPKALIYSASYRYSGVPDRFTGSGSGTDFTLTISNVQSEDLAEYFCQQYNSYPYTFGGGTKLEIK
notes: human IgG1/kappa; also called 2H8_HCvar2 + 2H8_LCvar4
B12: 2H8.22 (antibody, human IgG1, V domains shown)
VH: EIQLQQSGTELVRPGTSVKLSCKASGYTFTNYWMHWVKQRPGQGLEWIGMIDPSAAYTNYNQNFKGKATLTVDTSSGTAYMQLSSLTSEDSAVYYCARSGVAFPYWGQGTTVTVSS
VL: DIVMTQSQKFMSTSVGDRVSITCKASQNVGTNVAWYQQKPGQSPKALIYSASYRYSGVPDRFTGSGSGTDFTLTISNVQSEDLAEYFCQQYNSYPYTFGGGTKLEIK
notes: human IgG1/kappa; also called 2H8_HCvar4 + 2H8_LCvar4
B13: 2H8.28 (antibody, human IgG1, V domains shown)
VH: EIQLQQSGTELVRPGTSVKLSCKASGYTFTNYWMHWVKQRPGQGLEWIGMIDPSAAYTNYNQNFKGKATLTVDTSSGTAYMQLSSLTSEDSAVYYCARSGVAFPYWGQGTTVTVSS
VL: DIVMTQSQKFMSTSVGDRVSVTCKASQNVGTNVAWYQQKSGQSPKALIYSASHRYSGVPDRFTGSGSGTDFTLTISNVQSEDLAEYFCQQYNSYPYTFGGGTKLEIK
notes: human IgG1/kappa; also called 2H8_HCvar4 + 2H8_LCvar5
B14: 2H8.38 (antibody, human IgG1, V domains shown)
VH: EVQLQQPGTELVRPGTSVKLSCKASGYTFTNYWMHWIKQRPGQGLEWIGMIDPSDTYTKFNQNFKGKATLTVDTSSSTAYMQLNSLTSEDSAVYYCARSGVAFPYWGQGTTVTVSS
VL: DILMTQSQKFMSTSVGDRVSVTCKASQNVGRNVAWYQQISGQSPKPLIYSASHRYSGVPDRFTGSGSGTDFTLTISNVQSEDLVEFFCQQYNSYPYTFGGGTKLEIK
notes: human IgG1/kappa; also called 2H8_HCvar2 + 2H8_LCvar7
B15: 2H8.29 (antibody, human IgG1, V domains shown)
VH: EVQLQQPGAEVVRPGTSVKLSCKASGYTFTNYWMHWVKQRPGQGLEWIGMIDPSDNYTKYNQKLKGKATLTVDTSSSTANMHVNSLTSEDSAVYFCARSGVAFPYWGQGTLVTVSA
VL: DIVMTQSQKFMSTSVGDRVSVTCKASQNVGTNVAWYQQKSGQSPKALIYSASHRYSGVPDRFTGSGSGTDFTLTISNVQSEDLAEYFCQQYNSYPYTFGGGTKLEIK
notes: human IgG1/kappa; also called 2H8_HCvar5 + 2H8_LCvar5
B16: 2H8.11 (antibody, human IgG1, V domains shown)
VH: EVQLQQPGAEVVRPGTSVKLSCKASGYTFTNYWMHWVKQRPGQGLEWIGMIDPSDNYTKYNQKLKGKATLTVDTSSSTANMHVNSLTSEDSAVYFCARSGVAFPYWGQGTLVTVSA
VL: DIVMTQSQKFMSTSVGDRVSVTCKASQNVGTNVAWYQQKPGQSPKALIYSASHRYSGVPDRFTGSGSGTDFTLTISNVQSEDLAEYFCQQYNSYMYTFGGGTKLEIK
notes: human IgG1/kappa; also called 2H8_HCvar5 + 2H8_LCvar2
B17: 2H8.17 (antibody, human IgG1, V domains shown)
VH: EVQLQQPGAEVVRPGTSVKLSCKASGYTFTNYWMHWVKQRPGQGLEWIGMIDPSDNYTKYNQKLKGKATLTVDTSSSTANMHVNSLTSEDSAVYFCARSGVAFPYWGQGTLVTVSA
VL: DIQMTQSQKFMSTSIGDRVSVTCKASQNVGTNVAWYQQKPGQSPKSLIYSASHWYSGVPDRFTGSGSGTDFTLTISNVQSEDLAEYFCQQYNSYPYTFGGGTKLEIK
notes: human IgG1/kappa; also called 2H8_HCvar5 + 2H8_LCvar3
B18: 2H8.23 (antibody, human IgG1, V domains shown)
VH: EVQLQQPGAEVVRPGTSVKLSCKASGYTFTNYWMHWVKQRPGQGLEWIGMIDPSDNYTKYNQKLKGKATLTVDTSSSTANMHVNSLTSEDSAVYFCARSGVAFPYWGQGTLVTVSA
VL: DIVMTQSQKFMSTSVGDRVSITCKASQNVGTNVAWYQQKPGQSPKALIYSASYRYSGVPDRFTGSGSGTDFTLTISNVQSEDLAEYFCQQYNSYPYTFGGGTKLEIK
notes: human IgG1/kappa; also called 2H8_HCvar5 + 2H8_LCvar4
B19: 2H8.30 (antibody, human IgG1, V domains shown)
VH: EVQLQQSGAELVRPGTSVKLSCKASGYTFNNYWMHWVKQRPGQGLEWIGMIDPSDDDIKNNQKFKGKATLTVDTSSSTAYMQLISLTSEDSAVYYCARSGVALPYWGQGTLVTVSA
VL: DIVMTQSQKFMSTSVGDRVSVTCKASQNVGTNVAWYQQKSGQSPKALIYSASHRYSGVPDRFTGSGSGTDFTLTISNVQSEDLAEYFCQQYNSYPYTFGGGTKLEIK
notes: human IgG1/kappa; also called 2H8_HCvar6 + 2H8_LCvar5
B20: 2H8.06 (antibody, human IgG1, V domains shown)
VH: EVQLQQSGAELVRPGTSVKLSCKASGYTFNNYWMHWVKQRPGQGLEWIGMIDPSDDDIKNNQKFKGKATLTVDTSSSTAYMQLISLTSEDSAVYYCARSGVALPYWGQGTLVTVSA
VL: DIVMTQSQKFMSKSVGDTVSVTCKASQDVGRNVAWYQQKSGQSPKSLIYSASHRYSGVPDRFTGSGSGTDFTLTISNVQSEDLADYFCQQYNSYPYTFGGGTRLEIK
notes: human IgG1/kappa; also called 2H8_HCvar6 + 2H8_LC

Each binder was assayed against T1, recombinant BACE1 (BACE1 extracellular domain, R&D Systems Cat#931-AS) (UniProt P56817 22-457) (assay: SPR Biacore).
T1 construct: extracellular domain; also called BACE1 extracellular domain protein
T1 sequence (P56817 22-457): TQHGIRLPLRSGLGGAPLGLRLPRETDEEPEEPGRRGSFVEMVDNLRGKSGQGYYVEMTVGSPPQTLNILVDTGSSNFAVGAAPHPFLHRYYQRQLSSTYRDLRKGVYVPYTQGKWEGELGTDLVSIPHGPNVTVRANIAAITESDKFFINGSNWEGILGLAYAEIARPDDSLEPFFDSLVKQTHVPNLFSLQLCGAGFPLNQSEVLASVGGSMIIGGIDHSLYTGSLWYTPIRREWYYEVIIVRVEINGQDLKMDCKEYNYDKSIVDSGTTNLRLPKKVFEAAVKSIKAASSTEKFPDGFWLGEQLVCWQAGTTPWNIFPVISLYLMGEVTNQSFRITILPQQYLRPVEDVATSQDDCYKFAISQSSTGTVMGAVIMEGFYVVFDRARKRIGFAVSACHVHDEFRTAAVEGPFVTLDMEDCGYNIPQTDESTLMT
Work on B1 yielded a Kd of 17.9 nM, a koff of 0.000289 s⁻¹ and a kon of 16100 M⁻¹ s⁻¹. B2 showed a Kd of 20 nM, a koff of 0.000294 s⁻¹ and a kon of 14700 M⁻¹ s⁻¹. B3 gave a Kd of 19.8 nM, a koff of 0.000308 s⁻¹ and a kon of 15500 M⁻¹ s⁻¹. Work on B4 yielded a Kd of 42.5 nM, a koff of 0.000674 s⁻¹ and a kon of 15900 M⁻¹ s⁻¹. B5 showed a Kd of 15.2 nM, a koff of 0.000251 s⁻¹ and a kon of 16500 M⁻¹ s⁻¹. B6 was tested, and the Kd was 11.8 nM, the koff was 0.000171 s⁻¹ and the kon was 14500 M⁻¹ s⁻¹. B7 was tested, and the Kd was 18.3 nM, the koff was 0.000312 s⁻¹ and the kon was 17000 M⁻¹ s⁻¹. Work on B8 yielded a Kd of 20.9 nM, a koff of 0.000299 s⁻¹ and a kon of 14300 M⁻¹ s⁻¹. With B9 the Kd was 62 nM, the koff was 0.000878 s⁻¹ and the kon was 14200 M⁻¹ s⁻¹. B10 gave a Kd of 19.2 nM, a koff of 0.000291 s⁻¹ and a kon of 15200 M⁻¹ s⁻¹. For B11, the Kd was 93.4 nM, the koff was 0.00147 s⁻¹ and the kon was 15800 M⁻¹ s⁻¹. With B12 the Kd was 304 nM, the koff was 0.0109 s⁻¹ and the kon was 35900 M⁻¹ s⁻¹. B13 gave a Kd of 34 nM, a koff of 0.00062 s⁻¹ and a kon of 18200 M⁻¹ s⁻¹. Work on B14 yielded a Kd of 17.8 nM, a koff of 0.000329 s⁻¹ and a kon of 18500 M⁻¹ s⁻¹. In the case of B15, the Kd is reported as 18.6 nM, the koff is reported as 0.000255 s⁻¹ and the kon is reported as 13700 M⁻¹ s⁻¹. With B16 the Kd was 17.7 nM, the koff was 0.000235 s⁻¹ and the kon was 13300 M⁻¹ s⁻¹. B17 showed a Kd of 19 nM, a koff of 0.000259 s⁻¹ and a kon of 13600 M⁻¹ s⁻¹. Work on B18 yielded a Kd of 79.4 nM, a koff of 0.00101 s⁻¹ and a kon of 12700 M⁻¹ s⁻¹. Work on B19 yielded a Kd of 21.2 nM, a koff of 0.000274 s⁻¹ and a kon of 12900 M⁻¹ s⁻¹. In the case of B20, the Kd is reported as 16 nM, the koff is reported as 0.000264 s⁻¹ and the kon is reported as 16500 M⁻¹ s⁻¹.
